This series in a line: yeast display, Sf9 membrane polyspecificity reagent, FACS + sequencing; frameworks hold sequencing errors. An outline of the steps:
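Sorting gates, low and high (top ~1%), were placed on anti-HA fluorescence to track expression and on streptavidin fluorescence to track reagent binding. A clone's polyreactivity label is taken from the gate it came out of. The reagent was 10% biotinylated, detergent-solubilized Sf9 membrane, applied for 1 hour at 4 °C to galactose-induced yeast display cells.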
In the case of “QVQLVESGGGLVQAGGSLRLSCAASGRTFGRNTMGWYRQAPGKERELVASITRSSGSTYYADSVKGRFTISRDNAKNTVYLQMNSLKPEDTAVSYCNARATSGGDYWGQGTQVTVSS”, the “polyreactivity (PSR sort gate)” value is listed as “high polyreactivity”.

As to “QVQLVESGGGLVQAGGSLRLSCAASGRTFGRYAKGWYRQAPGKERELVAAISWSGGSTYYADSVKGRFTISRDNAKNTVYLQMNSLKPEDTAVYYCAAVTTDGVYAFDYWGQGTQVTVSS”, the “polyreactivity (PSR sort gate)” value is listed as “low polyreactivity”.

With “QVQLVESGGGLVQAGGSLRLSCAASGRTFGRYAMGWYRQAHGKERELVAAISWSGGSTYYADSVKGRFTISRDNAKNTVYLQMNNLKPEDTAVYYCAAVTTDGVYAFDYWGQGTQVTVSS”, the “polyreactivity (PSR sort gate)” value is recorded as “low polyreactivity”.

For “QVQLVESGGGLVQAGGSLRLSCAASGRTFGRYAMGWYRQAPGKERELVAAITRSGSSTYYADSVKGRFTISRDNAKNTVYLQMNSLKPEDTAVYYCAALYGPFYSTGEYWGQGTQVTVSS”, the “polyreactivity (PSR sort gate)” value is “high polyreactivity”.

“QVQLVESGGGLVQAGGSLRLSCAASGRTFGRYAMGWYRQAPGKERELVAAITWSGGSTYYADSVKGRFTISRDYAKNTVYLQMNSLKPEDTAVYYCAAARVYFGDLFVVYYFIQYDYWGQGTQVTVSS”: the “polyreactivity (PSR sort gate)” value is on record as “low polyreactivity”.

In the case of “QVQLVESGGGLVQAGGSLRLSCAASGRTFGRYAMGWYRQAPGKESELVAAISWTGGRTYYADSVKGRFTISRDNAKNTVYLQMNSLKPEDTAVYYGAALYDRIPAASRGYDSWGQVTQVTVSS”, the “polyreactivity (PSR sort gate)” value is “high polyreactivity”.

Turning to “QVQLVESGGGLVQAGGSLRLSCAASGRTFGRYTMGLYRQAPGKERELVAAITYSGGSTYYADSVKGRFTISRDNAKNTVYFQMNSLKPVDTAVYYCADEWGYDWYRYGYWGQGTQVTVSS”, the “polyreactivity (PSR sort gate)” value is “low polyreactivity”.

In the case of “QVQLVESGGGLVQAGGSLRLSCAASGRTFGRYVMGWYIQAPGKERELVAAIRWSGGTTYYADSVKGRFTISRDNAKNTVYLQMNSLKPEDTAVYYCAARWGPYYGGVRYGYWGQGTQVTVSS”, the “polyreactivity (PSR sort gate)” value is reported as “high polyreactivity”.

With “QVQLVESGGGLVQAGGSLRLSCAASGRTFGSNAMGWYRQAPGKERELVAAISGRTDSTYYADSVKGRFTISRDNAKNTVYLQMNSLKPEDTAVFYCAADSGDVLYYYIRYNYWGQGTQVTVSS”, the “polyreactivity (PSR sort gate)” value is “low polyreactivity”.

For the sequence “QVQLVESGGGLVQAGGSLRLSCAASGRTFGSNAMGWYRQAPGKERELVAAISSSDSTNYADSVKGRFTISRDNAKNTVYLQMNSLKPEDTAVYYCNAGHPVRSPGYDYWGQGTQVTVSS”, the “polyreactivity (PSR sort gate)” value is “low polyreactivity”.

With “QVQLVESGGGLVQAGGSLRLSCAASGRTFGSNTMGWYRQAPGKERELVAAISGTGTSTYYADSVKGRFTISRDNAKNTVYLQMNSLKPEDTAVYYCAAGWYKYLFQPHDYWGQGTQVTVSS”, the “polyreactivity (PSR sort gate)” value was “low polyreactivity”.

Consider “QVQLVESGGGLVQAGGSLRLSCAASGRTFGSYAMGWYRQAPGKERELVAAITWSGGITYFADSVKGRFTISRDNAKNTVYLKMNSLKPEDTAVYYCNVYVSAGEEDEYWGQGTQVTVSS”, for which the “polyreactivity (PSR sort gate)” value is reported as “low polyreactivity”.

“QVQLVESGGGLVQAGGSLRLSCAASGRTFGSYAMGWYRQAPGTERELVAAITWSGTGTYYADSVKGRFTISRDKAKNTVYLQMHSLKPEDTAVYYCNTDRWYAYDWGQGTQVTVSS”: the “polyreactivity (PSR sort gate)” value is “high polyreactivity”.

Consider “QVQLVESGGGLVQAGGSLRLSCAASGRTFGTNAMGWYRPAPGKERELVAAISWRGTSTYYADSVKGRFTISRDNAKNTVYLQMNILKPEVTAVYYCAADFSYTSYATRYQGDYWGQGTQVTVSS”, for which the “polyreactivity (PSR sort gate)” value was “low polyreactivity”.

With “QVQLVESGGGLVQAGGSLRLSCAASGRTFGTNAMGWYRQAPGKERELVAAISRRGGSTYYADSVKGRFTISRDNAKNTVYLQMNSLKPEDTAVYYCAKTIGLKHEDEYWGQGTQVTVSS”, the “polyreactivity (PSR sort gate)” value is on record as “low polyreactivity”.

As for “QVQLVESGGGLVQAGGSLRLSCAASGRTFGTNAMVWYRQAPGKERELVAAITWRGGSTSYADSVKGRFTISRDNAKNTVYLQMNSLKPEDSAVYYCAVRLRYPGNTFYYWGQGTQVTVSS”, the “polyreactivity (PSR sort gate)” value is “high polyreactivity”.

As for “QVQLVESGGGLVQAGGSLRLSCAASGRTFGTNGMGWYRQAPGKERELVAVITWTGGSTYYADSVKGRFTISRDNAKNTVYLQMNSLKPEDTAVYYCAAKYSHLGYNYWGQGTQVTVSS”, the “polyreactivity (PSR sort gate)” value is given as “high polyreactivity”.

On to “QVQLVESGGGLVQAGGSLRLSCAASGRTFGTYAMGWYRQAPGKERELVAAISSGGSTYADSVKGRFTISRDNAKNTVYLQRNSLTPEETAVYYCNADFRARNYHYYPRRFKYYYWGQGTQVTVSS”, for which the “polyreactivity (PSR sort gate)” value is recorded as “high polyreactivity”.

Consider “QVQLVESGGGLVQAGGSLRLSCAASGRTFGTYAMGWYRQAPGKQRELVAAISSGGSTYADSVKGRFTISRDNAKNTVYLQMNSLKPEDTAVYYCNADYRARNYHYYPRRFKYYYWGQGTQVTVSS”, for which the “polyreactivity (PSR sort gate)” value was “high polyreactivity”.

On to “QVQLVESGGGLVQAGGSLRLSCAASGRTFGVNTMGWYRQAPGKERELVASISTSGGSTYADSVKGRFTISRDNAKNTVYLQMISLKPEDTAVYYCARTYYWYLRVDYWGQGTQVTVSS”, for which the “polyreactivity (PSR sort gate)” value is reported as “low polyreactivity”.

In the case of “QVQLVESGGGLVQAGGSLRLSCAASGRTFGVYAMGWYRQAPGKDSELVEAINNGGSTNYADSVKGRFTISRDNAKNTVYLQINSLKPEDTAVYNCNAVVGYRHWPYYRGEYDYWGQGTQVTVSS”, the “polyreactivity (PSR sort gate)” value was “low polyreactivity”.

For “QVQLVESGGGLVQAGGSLRLSCAASGRTFGVYAMGWYRQAPGKERELVAAIRWSGGGTYYADSVKGRFTISRDNAKNTVYLQMNSLKPEDTAVYYCNAEIWTEGGYWGQGTQVTVSS”, the “polyreactivity (PSR sort gate)” value is on record as “low polyreactivity”.

As for “QVQLVESGGGLVQAGGSLRLSCAASGRTFGWKARGWYRQAPGKEMELVAAISWSGTNTYDADSVKGRFTISRDNAKNTVYLQMNSLKPEDTAVYYCAARDWTGSWNGYWSWEYNYWGQGTQVTVSS”, the “polyreactivity (PSR sort gate)” value was “low polyreactivity”.

As for “QVQLVESGGGLVQAGGSLRLSCAASGRTFGWSAMGWYRQAPGKERELVAAISSSGGSTYYADSVKGRFTISRDNAKNTVYLQMNSLKPEDTAVYYCAKESYRGGFDYWGQGTQVTVSS”, the “polyreactivity (PSR sort gate)” value is recorded as “high polyreactivity”.

For “QVQLVESGGGLVQAGGSLRLSCAASGRTFGWYDMGWYRQAPGKERELVAAISWSGSSTYYADSVKGRFTISRDNAKNTVYLQMNSLKPEDNAVYYFNDVIRSDLFSYLDGRYDYWGQGTQVTVSS”, the “polyreactivity (PSR sort gate)” value was “high polyreactivity”.

“QVQLVESGGGLVQAGGSLRLSCAASGRTFGYNAMGWYREAPGKERELVAAITLGGITHYADSVKGRFTISRDNAKNTVYLQMNSLKPEDTAVYYCAKRGPYYNDDEYYWGQGTQVTVSS”: the “polyreactivity (PSR sort gate)” value is listed as “low polyreactivity”.

On to “QVQLVESGGGLVQAGGSLRLSCAASGRTFGYNAMGWYRQAPGKERELVAAIRTIGDSTYYADSVKGRFTISRDNAKNSVYLQMNSLKPEDTAVYYCAARKLRSRYDYWGQGTQVTVSS”, for which the “polyreactivity (PSR sort gate)” value is listed as “high polyreactivity”.

For the sequence “QVQLVESGGGLVQAGGSLRLSCAASGRTFGYNAMGWYRQAPGKERQFVAAISWSGGRTYYADSVKGRFTISRDNAKNTVYLQMNSLKPEDTAVYYCAAAAPHLSAKMDYWGQGTQVTVSS”, the “polyreactivity (PSR sort gate)” value was “low polyreactivity”.

For the sequence “QVQLVESGGGLVQAGGSLRLSCAASGRTFGYNAMGWYSQAPGKERELVAAISRSGGRTYYADSVKGRFTISRDNAKNTVYLQMNSLKPEDTAVYYCAAESYHRGYDYWGQGTQVTLSS”, the “polyreactivity (PSR sort gate)” value is reported as “high polyreactivity”.

Turning to “QVQLVESGGGLVQAGGSLRLSCAASGRTFGYNVMGWYRQAPGKERELVAAISSGGNTYYADSVKGRFTISRDNAKNTVYLQMNSLKPEDTAVYYCNARQYRYLSDRMNYWGQGTQVTVSS”, the “polyreactivity (PSR sort gate)” value is “low polyreactivity”.

As to “QVQLVESGGGLVQAGGSLRLSCAASGRTFGYNVMGWYRQAPGKERELVAVINGRGGSTYYADSVKGRFTISRDNAKNTVYLQMNSLKPEDTAVYYCNVVSGGYFEYDYWGQGTQVTVSS”, the “polyreactivity (PSR sort gate)” value is listed as “high polyreactivity”.

On to “QVQLVESGGGLVQAGGSLRLSCAASGRTFGYYAMGWYRQAPGKERELVAAINWRGDSTYYADSVKGRFTISRDNAKNTVYLQMNSLKPEDTAVYYCAALVRGYDRSIRMDYWGQGTQVTVSS”, for which the “polyreactivity (PSR sort gate)” value was “high polyreactivity”.

For “QVQLVESGGGLVQAGGSLRLSCAASGRTFGYYAMGWYRQAPGKERELVAAISSGGGTYYADSVKGRFTISRDNAKNTVYLLMNSLKPEDTAVYYCAATGWVYWGQFDYWGQGTQVTVSS”, the “polyreactivity (PSR sort gate)” value is reported as “low polyreactivity”.

As to “QVQLVESGGGLVQAGGSLRLSCAASGRTFGYYAMGWYRQAPGKERELVAAISTRSGSTYYADSVKGRFTISRDNAKNTVYLQMNSLKPEDTAVYYCAADSYPDYDYWGQGTQVTVSS”, the “polyreactivity (PSR sort gate)” value is “low polyreactivity”.

Consider “QVQLVESGGGLVQAGGSLRLSCAASGRTFGYYAMGWYRQAPGKERELVAAITDSGDITYYADSVKGRFTISRDNAKNTVYLQMNSLKPEDTAVYYCAADSYEFWSEVYTGESWGQGTQVTVSS”, for which the “polyreactivity (PSR sort gate)” value was “low polyreactivity”.

For the sequence “QVQLVESGGGLVQAGGSLRLSCAASGRTFGYYAMGWYRQAPGKERELVAAITGSGGSTYYADSVKGRFTISRDNAKNTVYLQMNSLKPEDTAVYYCAVESVRTRGWIRLDYWGQGTQVTVSS”, the “polyreactivity (PSR sort gate)” value is “high polyreactivity”.

For the sequence “QVQLVESGGGLVQAGGSLRLSCAASGRTFGYYAMGWYRQAPGKERELVASITTGGSTDYADSVKGRFTISRDNAKNTVYLQMNSLKPEDTAVYYCAAKPNPYTKARYYYWGQGTQVTVSS”, the “polyreactivity (PSR sort gate)” value is on record as “high polyreactivity”.

As for “QVQLVESGGGLVQAGGSLRLSCAASGRTFGYYGLGWSRQAPGKERELVAAITGSGGSTYYADSVKGRFTISRDNAKNTVYLQMNSLKPEDTAVYYCNTARRHGQTQGGDYWGQGTQVTVSS”, the “polyreactivity (PSR sort gate)” value was “high polyreactivity”.

Consider “QVQLVESGGGLVQAGGSLRLSCAASGRTFGYYVMGCYRQAPGKERELVAAISASGGSTYYADSVKGRFTISRDNAKNTVYLQMNSLKPEDTAVYYCNADYLSQPDWYYFYLFDYWGQGTQVTVSS”, for which the “polyreactivity (PSR sort gate)” value is “high polyreactivity”.

On to “QVQLVESGGGLVQAGGSLRLSCAASGRTFHAYAMGWSRQAPGKGRELVAAITRTGTTHYADSVKGRFTISRDNAKNTVYLQMNSLKPEDTAVYYCAAQHVRVDAQFVLQGYDYWGQGTQVTVSS”, for which the “polyreactivity (PSR sort gate)” value is recorded as “low polyreactivity”.

Regarding “QVQLVESGGGLVQAGGSLRLSCAASGRTFHDYAMGWYRQAPGKERELVASISSGGSTYYADSVKGRFTISRDNAKNTVYLQMNSLKPEDTAVYYCAAYYYSTLYYRYDYWGQGTQVTVSS”, the “polyreactivity (PSR sort gate)” value is “low polyreactivity”.

For the origin of these results see the nanobody polyreactivity screen of Harvey et al. (2022).
